According to article PMC4920195, “Non-Smc element 5 (Nse5) of the Smc5/6 complex interacts with SUMO pathway components” (Biology Open, 2016):
Residue numbers refer to the chain shown, from its start.

What was measured:
Test in all cases: two-hybrid; LexA bait and B42 activating domain prey, galactose-induced; liquid culture, quantitative beta-galactosidase activity of permeabilized cells with reporter pSH18034, wild-type cells (JC470)
[1] = biological target: Nse5-ts2-LexA (S. cerevisiae) (UniProt Q03718)
Nse5-Y111H-LexA = biological target: T1, Nse5-Y111H-LexA (S. cerevisiae, UniProt Q03718 1-556, Y111H); settings: partners not purified
T1 construct: Nse5 of Saccharomyces cerevisiae, point mutant; also called J-132; source: yeast two-hybrid fusion, galactose-inducible promoter, in S. cerevisiae
T1 sequence (looked up): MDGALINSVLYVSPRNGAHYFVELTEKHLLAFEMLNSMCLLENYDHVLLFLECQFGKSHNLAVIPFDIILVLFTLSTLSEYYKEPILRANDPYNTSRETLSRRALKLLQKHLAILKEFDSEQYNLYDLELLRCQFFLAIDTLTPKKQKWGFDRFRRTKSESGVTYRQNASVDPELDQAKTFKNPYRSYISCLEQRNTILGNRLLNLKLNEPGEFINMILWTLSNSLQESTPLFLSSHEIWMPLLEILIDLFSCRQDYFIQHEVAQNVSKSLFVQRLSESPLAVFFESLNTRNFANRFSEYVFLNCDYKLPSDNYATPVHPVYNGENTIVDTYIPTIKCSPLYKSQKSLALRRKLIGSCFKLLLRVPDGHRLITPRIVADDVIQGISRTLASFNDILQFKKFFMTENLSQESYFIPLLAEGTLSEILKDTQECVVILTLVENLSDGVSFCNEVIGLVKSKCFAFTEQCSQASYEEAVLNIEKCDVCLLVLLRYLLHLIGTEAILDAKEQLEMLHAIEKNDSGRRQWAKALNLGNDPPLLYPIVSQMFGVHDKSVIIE

Nse5-Y123H-LexA = biological target: T2, Nse5-Y123H-LexA (S. cerevisiae, UniProt Q03718 1-556, Y123H); settings: partners not purified
T2 construct: Nse5 of Saccharomyces cerevisiae, point mutant; also called J-131; source: yeast two-hybrid fusion, galactose-inducible promoter, in S. cerevisiae
T2 sequence (looked up): T1 sequence (looked up) with H111Y, Y123H

Nse5-H319Y-LexA = biological target: T3, Nse5-H319Y-LexA (S. cerevisiae, UniProt Q03718 1-556, H319Y); settings: partners not purified
T3 construct: Nse5 of Saccharomyces cerevisiae, point mutant; also called J-120; source: yeast two-hybrid fusion, galactose-inducible promoter, in S. cerevisiae
T3 sequence (looked up): T1 sequence (looked up) with H111Y, H319Y

Nse5-LexA (wild type) = biological target: T4, Nse5-LexA (wild type) (S. cerevisiae, UniProt Q03718 1-556); settings: partners not purified
T4 construct: Nse5 of Saccharomyces cerevisiae, NSE5 gene cloned into a pEG202-derived bait plasmid; also called Non-Smc element 5; J-038; source: yeast two-hybrid fusion, galactose-inducible promoter, in S. cerevisiae
T4 sequence (looked up): T1 sequence (looked up) with H111Y

## Nse6-AD (natural protein)
[1]
  two-hybrid signal as percent of wild-type Nse5: 63%

B1: Smt3-AD (natural protein, S. cerevisiae, UniProt Q12306 1-101, looked up)
chain: MSDSEVNQEAKPEVKPEVKPETHINLKVSDGSSEIFFKIKKTTPLRRLMEAFAKRQGKEMDSLRFLYDGIRIQADQTPEDLDMEDNDIIEAHREQIGGATY
notes: Smt3 (SUMO) of Saccharomyces cerevisiae, SMT3 cloned into a pJG4-6-derived prey vector; also called SUMO; J-043; source: yeast two-hybrid fusion, galactose-inducible promoter, in S. cerevisiae
Nse5-Y111H-LexA
  two-hybrid signal as percent of wild-type Nse5: 18%
Nse5-Y123H-LexA
  two-hybrid signal as percent of wild-type Nse5: 75%
Nse5-H319Y-LexA
  two-hybrid signal as percent of wild-type Nse5: 40%

B2: Ubc9-AD (wild type) (enzyme, S. cerevisiae, UniProt P50623 1-157, looked up)
chain: MSSLCLQRLQEERKKWRKDHPFGFYAKPVKKADGSMDLQKWEAGIPGKEGTNWAGGVYPITVEYPNEYPSKPPKVKFPAGFYHPNVYPSGTICLSILNEDQDWRPAITLKQIVLGVQDLLDSPNPNSPAQEPAWRSFSRNKAEYDKKVLLQAKQYSK
notes: Ubc9 of Saccharomyces cerevisiae, UBC9 cloned into a pJG4-6-derived prey vector; also called E2 conjugating enzyme; J-042; source: yeast two-hybrid fusion, galactose-inducible promoter, in S. cerevisiae
Nse5-LexA (wild type)
  two-hybrid signal as fold of the interactions with Siz1 and Siz2: ~5 fold
